Earlier results on 2 substances are cited in PMC9240770.

For this data set, the target named is TREM-1 (Mus musculus) (UniProt Q9JKE2). The data set is described as follows: SPR. (In general: Surface plasmon resonance follows binding to a sensor surface in real time, without labels.)
UniProt Q9JKE2, sequence (Q9JKE2 21-230): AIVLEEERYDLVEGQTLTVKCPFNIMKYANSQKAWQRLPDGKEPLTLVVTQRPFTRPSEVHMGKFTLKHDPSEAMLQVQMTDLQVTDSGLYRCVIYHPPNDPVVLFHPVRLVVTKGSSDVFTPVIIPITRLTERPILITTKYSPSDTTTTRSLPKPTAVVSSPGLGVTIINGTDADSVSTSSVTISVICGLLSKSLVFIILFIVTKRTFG

As a reminder, the Kd is the free concentration of one partner at which half of the binding sites on the other are occupied at equilibrium, for simple one-to-one binding. On to HMGB1 (from UniProt P63158), for which the Kd is 35.4 µM.

For the substance CIRP (from UniProt P60824), the Kd was 0.117 µM.
